Self-cleavage data for 34 variants are collected here from the RNAGym collection of RNA variant scans (doi:10.1093/nar/gkz1192).

B1: CPEB3 Ribozyme (parent)
chain: UAACAGGGGGCCACAGCAGAAGCGUUCACGUCGCAGCCCCUGUCAGAUUCUGGUGAAUCUGCGAAUUCUGCUGUAUAUCUC

This data set covers variants of B1. The experiment in a line: self-cleavage, relative activity (ratio to wild type); higher = more cleavage; in vitro, sequencing. The gist of the method:
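For each CPEB3 ribozyme variant, relative activity is its cleaved/total read fraction divided by the unmutated ribozyme's. Barcoded error-prone PCR libraries were transcribed by T7 RNA polymerase (5 hours, 37°C) and held in DNase I for 15 min before an EDTA stop, with cleavage occurring throughout. Template-switching reverse transcription and Illumina sequencing were used to read the RNAs. A 5-read minimum applied, and results are the mean of three batches.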
For the variant UAACAGGGGGCCACAGCAGAAGCGUUCAUGUCGCAGCCCCUGUCAGAUUCUGGUGAAUCGGCGAAUUCUGCUGUAUAUCUC [C29U U60G], the self-cleavage came out at 0.19.
As for UAACAGGGGCCCACAGCAGAAGCGUUCACGUCGCAGCCCCUGUCAGUUUCUGGUGAAUCUGCGAAUUCUGCUGUAUAUCUC [G10C A47U], the self-cleavage was 0.15.
The result for UAACAGGGAGCCACAGCAGAAGCGUUCACGUCGCAGCCCCUGUCAGAUUCUGGUGAAUCUGCGAAUUCUGCUGUAUAUCUC [G9A] reads 0.29; that for UAACAGGGGGCCACAGCAGAAGCGUUCACGUAGCAGCCCCUGUCAGAUUCUGGUGAUUCUGCGAAUUCUGCUGUAUAUCUC [C32A A57U], 0.2.
Then UAACAGGAGGCCACAGCAGAAGCGUUCACGUCGCAGCCCAUGUCAGAUUCUGGUGAAUCUGCGAAUUCUGCUGUAUAUCUC [G8A C40A], with 0.16; and UAACAGGGGGCCACAGCAGAAGCGUUCGCGUCGUAGCCCCUGUCAGAUUCUGGUGAAUCUGCGAAUUCUGCUGUAUAUCUC [A28G C34U], with 0.32.
Then UAACAGGGGUCCACAGCAGAAGCGUUCACGUCGCAGCCCCUGUCAGAUUCUGGUGAAUCUGCGAAUUCUGCUGUAUGUCUC [G10U A77G], with 0.35; and UAACAGGGGGCCACAGCAGAAGCGUUCACGUCGCAGCCCCUGUCAGAUCCUGGUGAAUCUGCGAAUUCUGCGGUAUAUCUC [U49C U72G], with 0.26.
In the case of UAACAGGGGGCCACAGCAGAAGCGUUCACGUCGCAGCCCCUGUCAGAUUCUGGUGAAUCUGCUAAUCCUGCUGUAUAUCUC [G63U U67C], the self-cleavage was 0.29.
Take UAACAGGGGGCCACAGCAGAAGCGUUCACGUCGCAGUCCCUGUCGGAUUCUGGUGAAUCUGCGAAUUCUGCUGUAUAUCUC [C37U A45G]: the self-cleavage amounted to 0.5.
The result for UAACAGGGGGCCACAGCAGAAGCGUUCACGUCGCAGCCCCUGUCAGAUUCUGGUGAAUCUGCGGAUUCUGGUGUAUAUCUC [A64G C71G] reads 0.31; that for UAACAGGAGGCCACAGCAGAAGCGUUCACGUCGCAGCCCCUGUCAGAUUCUGGUGAACCUGCGAAUUCUGCUGUAUAUCUC [G8A U58C], 0.2; that for UAACAGGGGGCCACAGCAGAAGCCUUCACGUCGCAGCCCCUGACAGAUUCUGGUGAAUCUGCGAAUUCUGCUGUAUAUCUC [G24C U43A], 0.54.
The result for UAACAGGGGGCCACAGCAGAAGCGUUCACGUCGCAGCCCCGGUCAGAUUCUGGUGGAUCUGCGAAUUCUGCUGUAUAUCUC [U41G A56G] reads 0.22; that for UAACUGGGGGCCGCAGCAGAAGCGUUCACGUCGCAGCCCCUGUCAGAUUCUGGUGAAUCUGCGAAUUCUGCUGUAUAUCUC [A5U A13G], 1.01; that for UAACAGGGGGCCACAGCAGAAGCGUUCACGUCGCAGCCCGUGUCAGAUUCUGGUGAAUCUGCGAAUUCUGCCGUAUAUCUC [C40G U72C], 0.48.
The result for UAACAGGGGGCCACAGCAGAAGCGUUCACGUCGCAGCCCCUGUCAGAUUCUGGUGUAUCUGCGAAUUCGGCUGUAUAUCUC [A56U U69G] reads 0.46.
Consider UAAUAGGGGGCCACAGCAGAAGCGUUCACGUCGCAGCCCCUGUCAGAUUCUGGUGAAUCUGCGAAUUCUGCUGUACAUCUC [C4U U76C], for which the self-cleavage was 1.16.
Turning to UAACAGGGGGCCACAGCAGAAGCGUGCACGUCGCAGCCCCUGUCAGAUUCUGGUGAAUCUGAGAAUUCUGCUGUAUAUCUC [U26G C62A], the self-cleavage was 0.13.
Then UAACAGGGGGCCACGGCAGAAGCGUUCACGUGGCAGCCCCUGUCAGAUUCUGGUGAAUCUGCGAAUUCUGCUGUAUAUCUC [A15G C32G], with 0.11; and UAACAGGGGGCCACAGCAGAAGCGUUCACGUCGCAGCCCCAGUCAGAUUCUGGUGAAUCUGCGCAUUCUGCUGUAUAUCUC [U41A A64C], with 0.15; and UAACAGGGAGCCACAGCAGAAGCGUUCACGUCGCAGCCCCUGUCAGAUUCUGGUGAAUCUGCGAAUUCUGCUGUAUAACUC [G9A U78A], with 0.44.
Then UAACAGGAGGCCACAGCAGAAGCGUUCACGUCGCCGCCCCUGUCAGAUUCUGGUGAAUCUGCGAAUUCUGCUGUAUAUCUC [G8A A35C], with 0.21.
On to UAACAGGGGGCCACAGCAGAAGCGUUCACGUCGCAGCCCCUGUCAGAUUCUGGUGAAUCUGCGAAUUCUGCUGUAUGUCUC [A77G], for which the self-cleavage is 1.06.
Then UAACAGGGGGCCACAGCAGAAGCGUUCACGUCGCAGCCCCUGUCAAAUUUUGGUGAAUCUGCGAAUUCUGCUGUAUAUCUC [G46A C50U], with 0.17.
In the case of UAACAGGGGGCCACAGCAGAAGCGUACACGUCGCAGCCCCUGUCAGAUUCUGUUGAAUCUGCGAAUUCUGCUGUAUAUCUC [U26A G53U], the self-cleavage amounted to 1.04.
Then UAACAGGGGGCCACAGCAGAAGCCUUCACGUCGCAGCCCCUGUCAGAUUCUGGUGAAUCUGCGAAUUCUGCUGUAUAUCCC [G24C U80C], with 0.36; and UAACGGGGGGCCACAGCAGAACCGUUCACGUCGCAGCCCCUGUCAGAUUCUGGUGAAUCUGCGAAUUCUGCUGUAUAUCUC [A5G G22C], with 0.34.
The result for UAACAGGGGGCCACAGCAGAAGCGUUCUCGUCGCAGCCCCUGUCAGAUUCUGGUGAAUCUGCGAAUUCUGCUGUAUAUCUU [A28U C81U] reads 0.86; that for UAACAGGGGGCCACAGCAGAAGCGUUCACGUCGCAGCCCCUGUCAGAUUCUGGUGAGUCUGCGAAUUCUGCUGAAUAUCUC [A57G U74A], 1.2.
The result for UAACUGGGGGCCACAGCAGAAGCGUUCACGUCGCAGCCCCUGUCAGAUUCUGGUGAAUCUGCGAAUGCUGCUGUAUAUCUC [A5U U67G] reads 0.54; that for UAACGGGGGGCCACAGCAGAAGCGUUCACGUCGCAGCCCCUGUCAGAUUCUGGUCAAUCUGCGAAUUCUGCUGUAUAUCUC [A5G G55C], 0.65; that for UAACAGGGCGCCACUGCAGAAGCGUUCACGUCGCAGCCCCUGUCAGAUUCUGGUGAAUCUGCGAAUUCUGCUGUAUAUCUC [G9C A15U], 0.1.
For the variant UAACAGGGGGCCACAGCAGAAGCGUUUACGUCGCAGCCCCUGUCAGAUUCUGGUGAAUCUGCGAAUUCUGCUGUAUACCUC [C27U U78C], the self-cleavage worked out at 0.44.
